Data from patent US20200087363A1 (IMMATICS BIOTECHNOLOGIES, published 2020).

The binders below were run against T1, HLA-B*44:05 (human) (assay: UV peptide exchange, anti-b2m ELISA).
T1 construct: also called peptide-receptive MHC class I molecule
Procedure, shortened: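 Peptide-receptive HLA-B*44:05 monomers after UV-induced exchange were diluted 100-fold and captured on streptavidin-coated plates for 1 h at 37 °C. Bound complexes were detected with 2 µg/ml HRP-anti-β2m (1 h, 37 °C) and TMB, read at 450 nm. β2m signal reflects peptide-stabilized complex yield.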

DENIQKFIW and AEQQQQQMY fall in the same range of peptide exchange yield: 50 to 75% for the first, 50 to 75% for the second.

TEVHSSPAQRW and SESALQTVI fall in the same range of peptide exchange yield: 50 to 75% for the first, 50 to 75% for the second.

SEYVHSSFSGF and EEAVRSVAF fall in the same range of peptide exchange yield: 50 to 75% for the first, 50 to 75% for the second.

Compared with SESMVESKF, NEIDIHSIYF is higher in peptide exchange yield: 20 to 50% for the first, > 75% for the second.

SESDLVNFI and NEVDGEYRY fall in the same range of peptide exchange yield: 50 to 75% for the first, 50 to 75% for the second.

First: QEVGEITNL
Second: TEGAVEVKY
The peptide exchange yield of the first is higher: 50 to 75% for the first, 20 to 50% for the second.

SELGLPKEV and AEIEADRSYQ fall in the same range of peptide exchange yield: 20 to 50% for the first, 20 to 50% for the second.

AEVGDIIKVHF and KEMDPSRQSY fall in the same range of peptide exchange yield: 50 to 75% for the first, 50 to 75% for the second.

QEVAQVASAIL and TEENGFWYL cannot be ordered by peptide exchange yield: > 75% for the first, > 75% for the second.

Compared with ALEEGGGYIF, AEADLSYTWDF is higher in peptide exchange yield: 10 to 20% for the first, 50 to 75% for the second.

First: SEYVHSSF
Second: RENDFEPKF
The peptide exchange yield of the first is lower: 20 to 50% for the first, 50 to 75% for the second.

KEDNPSGHTY and HEDPSGSLHL fall in the same range of peptide exchange yield: 50 to 75% for the first, 50 to 75% for the second.

AELVGPVIPQDW and VEVGDRTDW fall in the same range of peptide exchange yield: 50 to 75% for the first, 50 to 75% for the second.

AELDSKILAL and EEYAGQITL fall in the same range of peptide exchange yield: 50 to 75% for the first, 50 to 75% for the second.

REIENGNSF and FETEQALRL fall in the same range of peptide exchange yield: 50 to 75% for the first, 50 to 75% for the second.

First: AELEGALQKA
Second: KEFGLDSVEL
The peptide exchange yield of the first is lower: 20 to 50% for the first, 50 to 75% for the second.

First: TEFHMQFSY
Second: VEMTGKHQL
The peptide exchange yield of the first is higher: > 75% for the first, 20 to 50% for the second.

First: AEEGPSVPKIY
Second: GEGTLRLSW
The peptide exchange yield of the first is lower: 50 to 75% for the first, > 75% for the second.

Compared with SEATHIITI, QEVAQVASA is lower in peptide exchange yield: 50 to 75% for the first, 20 to 50% for the second.

First: SESSSAFQF
Second: EEYQDSFERY
The peptide exchange yield of the first is higher: 50 to 75% for the first, 20 to 50% for the second.

SESKVFQLL and SESPIRISV fall in the same range of peptide exchange yield: 50 to 75% for the first, 50 to 75% for the second.

AEYSVHKI and AEVTLNNTI fall in the same range of peptide exchange yield: 50 to 75% for the first, 50 to 75% for the second.

First: EDNPSGHTY
Second: QESVHVASYYW
The peptide exchange yield of the first is lower: 20 to 50% for the first, > 75% for the second.

First: AEAEEAMKRL
Second: AEVGDIIKV
The peptide exchange yield of the first is higher: 50 to 75% for the first, 20 to 50% for the second.

AENIKKFLY and ALSPVPSHW fall in the same range of peptide exchange yield: 50 to 75% for the first, 50 to 75% for the second.

Compared with AEYSVHKITSTF, LETSCGSSTAY is lower in peptide exchange yield: > 75% for the first, 10 to 20% for the second.

REYEDGPLSL and QEISAHRTEF fall in the same range of peptide exchange yield: 50 to 75% for the first, 50 to 75% for the second.
